Assay results as given in patent EP4624486A1 (Guangdong Raynovent Biotech Co., Ltd., dated 2025).
Bridge positions count the residues as written; N and C are the ends. Square brackets hold non-standard residues; d marks the D form. Ends that are not written are not given here. αMeF = C[C@](N)(Cc1ccccc1)C(=O)O; αMeL = CC(C)C[C@](C)(N)C(=O)O; Aib = CC(C)(N)C(=O)O

T1: GIP receptor (GIPR) (UniProt P48546 22-466, limits assumed)
T1 sequence (looked up): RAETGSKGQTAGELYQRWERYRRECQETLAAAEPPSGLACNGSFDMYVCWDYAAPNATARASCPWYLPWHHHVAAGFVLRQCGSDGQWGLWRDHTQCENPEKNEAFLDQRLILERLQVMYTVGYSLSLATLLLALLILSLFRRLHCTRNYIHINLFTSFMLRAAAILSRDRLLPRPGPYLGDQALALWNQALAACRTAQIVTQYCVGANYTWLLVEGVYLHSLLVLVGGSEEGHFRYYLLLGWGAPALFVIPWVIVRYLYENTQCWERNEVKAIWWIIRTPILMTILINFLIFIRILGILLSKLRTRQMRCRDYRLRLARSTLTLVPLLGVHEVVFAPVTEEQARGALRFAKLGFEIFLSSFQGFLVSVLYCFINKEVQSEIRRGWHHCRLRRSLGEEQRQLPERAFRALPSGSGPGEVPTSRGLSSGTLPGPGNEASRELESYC


Columns and labels:
Assay in all cases: cell-based or functional assay
[1] = biological target: GLP-1 receptor (GLP-1R) (UniProt P43220)
[2] = biological target: GCG receptor (GCGR) (UniProt P47871)
[3] = biological target: GIP receptor (GIPR) (UniProt P48546)
[4] = biological target: GLP-1 receptor (GLP-1R) (UniProt P43220 24-463, limits assumed)
[5] = biological target: T1, GIP receptor (GIPR)
[6] = biological target: GCG receptor (GCGR) (UniProt P47871 26-477, limits assumed)
Sequence of GCG receptor (GCGR) (UniProt P47871 26-477, limits assumed) (P47871 26-477 limits assumed): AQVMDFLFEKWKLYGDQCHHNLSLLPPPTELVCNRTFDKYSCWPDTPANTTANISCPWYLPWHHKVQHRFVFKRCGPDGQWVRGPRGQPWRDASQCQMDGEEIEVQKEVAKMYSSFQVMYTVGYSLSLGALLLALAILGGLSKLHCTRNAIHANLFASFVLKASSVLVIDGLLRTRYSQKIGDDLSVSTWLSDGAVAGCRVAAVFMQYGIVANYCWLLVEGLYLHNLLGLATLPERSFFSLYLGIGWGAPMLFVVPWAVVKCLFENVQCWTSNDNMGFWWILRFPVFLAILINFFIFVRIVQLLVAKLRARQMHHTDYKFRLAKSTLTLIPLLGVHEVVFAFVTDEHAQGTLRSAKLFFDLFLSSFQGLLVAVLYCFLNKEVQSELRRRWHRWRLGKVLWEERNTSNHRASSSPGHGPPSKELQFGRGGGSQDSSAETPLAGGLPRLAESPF

Sequence of GLP-1 receptor (GLP-1R) (UniProt P43220) (P43220 24-463 limits assumed): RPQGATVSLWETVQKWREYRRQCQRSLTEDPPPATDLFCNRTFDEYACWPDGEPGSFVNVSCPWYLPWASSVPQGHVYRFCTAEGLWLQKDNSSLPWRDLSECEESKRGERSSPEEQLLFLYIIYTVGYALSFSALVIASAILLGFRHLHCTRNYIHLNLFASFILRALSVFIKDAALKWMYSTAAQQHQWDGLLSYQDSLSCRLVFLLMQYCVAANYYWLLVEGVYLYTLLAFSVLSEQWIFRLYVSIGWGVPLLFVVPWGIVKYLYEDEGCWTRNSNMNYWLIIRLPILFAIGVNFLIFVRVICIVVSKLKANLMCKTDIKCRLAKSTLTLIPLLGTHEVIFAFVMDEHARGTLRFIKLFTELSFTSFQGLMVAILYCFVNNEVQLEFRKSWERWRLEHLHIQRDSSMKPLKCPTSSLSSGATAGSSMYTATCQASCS
Sequence of GCG receptor (GCGR) (UniProt P47871) (P47871 26-477 limits assumed): as the sequence (P47871 26-477 limits assumed) above

Molecule | GLP-1 EC50 (nM); cAMP, agonistic activity [1] [nM] | GCG EC50 (nM); cAMP, agonistic activity [2] [nM] | GIP-1 EC50 (nM); cAMP, agonistic activity [3] [nM] | GLP-1 EC50 (nM); cAMP, agonistic activity [4] [nM] | GIP-1 EC50 (nM); cAMP, agonistic activity [5] [nM] | GCG EC50 (nM); cAMP, agonistic activity [6] [nM]
Human GLP-1 (7-37) (from UniProt P01275 21-180) (ligand) | 0.001 | – | – | – | – | –
LY3437943 (peptide) | 0.014 | 0.031 | 0.001 | – | – | –
Y[Aib]QGTFTSDYSI[αMeL]LDKKAQ[Aib]KFIEYLLEGGPSSGAPPPS-NH2 (linker 17-21 via (2-2-oxoethyl)‑glycine, AEEA, AEEA, γGlu, C20 diacid) [Example 1] | – | – | – | 0.009 | 0.001 | 0.024
Y[Aib]QGTFTSDYSI[αMeL]KDKKAQ[Aib]AFIEYLLKGGPSSGAPPPS-NH2 (bridge 14-17; not fully specified (bridges); also: stapled body (lipidated) structure only in drawing chem0263) [Example 54] | – | – | – | 0.002 | 0.0004 | 0.02
Y[Aib]QGT[αMeF]TSDYSI[αMeL]KDKKAQ[Aib]AFIEYLLKGGPSSGAPPPS-NH2 (bridge 14-17; not fully specified (bridges); also: stapled body (lipidated) structure only in drawing chem0260) [Example 51] | – | – | – | 0.001 | 0.0002 | 0.025
Y[Aib]QGTFTSDYSI[αMeL]LDKKAQ[Aib]KFIEFLIEGGPSSGAPPPS-NH2 (linker 17-21 via Ida, Lys, Lys, γGlu, C20 diacid) [Example 23] | – | – | – | 0.007 | 0.0004 | 0.096
Y[Aib]QGTFTSDYSK[αMeL]LDKKAQ[Aib]AFIEFLLEGGPSSGAPPPS-NH2 (linker 12-16 via Ida, Lys, Lys, γGlu, C20 diacid; also: further groups not given here) [Example 28] | – | – | – | 0.011 | 0.0008 | 0.11
Y[Aib]QGTFTSDYSI[αMeL]KDKKAQ[Aib]AFIEYLLEGGPSSGAPPPS-NH2 (bridge 14-17; not fully specified (bridges); also: stapled body (lipidated) structure only in drawing chem0251) [Example 45] | – | – | – | 0.005 | 0.0001 | 0.029
Y[Aib]QGTFTSDYSI[αMeL]LDKKAQ[Aib]KFIEFLLKGGPSSGAPPPS-NH2 (linker 21-28 via Ida, Lys, Lys, γGlu, C20 diacid; also: further groups not given here) [Example 26] | – | – | – | 0.014 | 0.0005 | 0.11
Y[Aib]QGTFTSDYSI[αMeL]KDKKAQ[Aib]AFIEYLLKGGPSSGAPPPS-NH2 (linker 14-17 via (2-2-oxoethyl)‑glycine, AEEA, γGlu, C20 diacid) [Example 38] | – | – | – | 0.002 | 0.0002 | 0.018
Y[Aib]QGTFTSDYSI[αMeL]KDKKAQ[Aib]AFIEYLLKGGPSSGAPPPS-NH2 (linker 14-17 via Ida, Lys, Lys, γGlu, C20 diacid; also: further groups not given here) [Example 41] | – | – | – | 0.003 | 0.0003 | 0.015
Y[Aib]QGTFTSDYSI[αMeL]KDKKAQ[Aib]AFIQYLLEGGPSSGAPPPS-NH2 (bridge 14-17; not fully specified (bridges); also: stapled body (lipidated) structure only in drawing chem0245) [Example 42] | – | – | – | 0.007 | 0.0005 | 0.025
Y[Aib]QGTFTSDYSI[αMeL]KDKKAQ[Aib]AFIEYLLEGGPSSGAPPPS-NH2 (linker 14-17 via (2-2-oxoethyl)‑glycine, AEEA, Lys, γGlu, C20 diacid) [Example 52] | – | – | – | 0.003 | 0.0001 | 0.025
